Key:
VEGF164 = target: T1, VEGF164 (mouse, UniProt Q00731-2 27-190); assay: BLI
T1 sequence: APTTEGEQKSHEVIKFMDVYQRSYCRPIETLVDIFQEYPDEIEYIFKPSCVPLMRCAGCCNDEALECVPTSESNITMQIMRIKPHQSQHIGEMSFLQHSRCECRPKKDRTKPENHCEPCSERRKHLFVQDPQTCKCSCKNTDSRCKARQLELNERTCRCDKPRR

alpha-thrombin [1] = target: T2, alpha-thrombin (human, UniProt P00734;P00734 328-363;364-622); assay: SPRi
VEGF165 = VEGF165 (human, UniProt P15692-4 27-191); assay: BLI
MAPK1 = MAPK1 (UniProt P28482 1-360); assay: BLI
alpha-thrombin [2] = target: T2, alpha-thrombin; assay: BLI
alpha-thrombin [3] = target: T2, alpha-thrombin; assay: BLI; remark: listed apart in the source
alpha-thrombin [4] = target: T2, alpha-thrombin; assay: BLI; remark: listed apart in the source

Sequence of MAPK1 (P28482 whole entry): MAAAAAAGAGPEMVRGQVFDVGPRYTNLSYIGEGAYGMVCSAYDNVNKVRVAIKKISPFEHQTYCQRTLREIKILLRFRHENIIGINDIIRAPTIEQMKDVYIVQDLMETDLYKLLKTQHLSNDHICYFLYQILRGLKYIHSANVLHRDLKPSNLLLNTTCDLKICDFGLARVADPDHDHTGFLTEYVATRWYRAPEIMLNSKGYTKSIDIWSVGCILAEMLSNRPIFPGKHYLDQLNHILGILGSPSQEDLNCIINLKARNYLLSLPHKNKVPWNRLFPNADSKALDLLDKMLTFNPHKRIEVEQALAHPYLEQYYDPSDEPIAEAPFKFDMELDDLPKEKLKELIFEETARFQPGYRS

## GGGAACAAAGCUGAAGUACUUACCC (structured_RNA, 2'-F pyrimidines; PS2 at 3'-phosphate of U17) [AF113-18]
VEGF164
  binding result: no binding
alpha-thrombin [1]
  Kd: 4.5 ± 0.2 pM
VEGF165
  binding result: no binding
MAPK1
  binding result: no binding
alpha-thrombin [2]
  Kd: 1.8 ± 0.2 pM
alpha-thrombin [3]
  Kd: 1 ± 0.1 pM

## GGGAACAAAGCUGAAGUACUUACCC (structured_RNA, 2'-F pyrimidines (from crystal construct; ST-2 not in material)) [AF113-1]
alpha-thrombin [4]
  Kd: 1870 ± 36 pM
VEGF164
  binding result: no binding
VEGF165
  binding result: no binding
MAPK1
  binding result: no binding
